Measurements taken from patent US20240010753A1 (EPIMAB BIOTHERAPEUTICS HK, published 2024).

What was measured:
[1] = biological target: T1, recombinant human ROR1-ECD protein (human, UniProt Q01973 30-406); test: competition ELISA: biotinylated ROR1-ECD pre-mixed with the row's antibody; competitor coated on the plate: ROR1-Tab2
T1 construct: also called human ROR1 extracellular domain
Method: (§1) The binding epitope of ROR1 antibodies were identified with a competition ELISA. Briefly, 96 well plates were coated with 1 ug/mL purified antibodies and incubated overnight at 4° C. After washing with PBS containing 0.05% Tween 20, plates were blocked with blocking buffer (PBS containing 0.05% Tween 20 and 2% BSA) at 37° C. for 2 hours. Biotinylated human ROR1-ECD protein pre-mixed with ROR1 antibody (sample) or irrelevant mouse IgG (baseline) was added into plate wells and incubated at 37° C. for 1 hour before being washed 3 times. Streptavidin-HRP (1:5000 dilution) was then added into each well and incubated at 37° C. for 1 hour before being washed another 3 times. Tetramethylbenzidine (TMB) chromogenic solution was added for color development for 5 minutes then the reaction was stopped with 1M HCl. Absorbance at 450 nm (OD₄₅₀) was measured on a microplate reader. The OD450baseline represents the level of human ROR1-ECD binding to ROR1 antibodies at absence of competition, while the difference between OD450baseline and OD450ₛₐₘₚₗₑ reflects the competition between the ROR1 antibody coated on plate and the antibody in solution. The inhibition percentage was calculated by following equation: […]

[2] = biological target: T1, recombinant human ROR1-ECD protein; test: competition ELISA: biotinylated ROR1-ECD pre-mixed with the row's antibody; competitor coated on the plate: ROR1-mAb004
Method: as §1

human ROR1 on cells [3] = biological target: T2, human ROR1 on cells (human, UniProt Q01973 30-937); test: flow cytometry on human ROR1 transfected CHO cells (CHOK1-ROR1)
T2 construct: whole, on cells; the cell line is named under assay; also called CHO-ROR1; CHOK1-ROR1
T2 sequence (Q01973 30-937): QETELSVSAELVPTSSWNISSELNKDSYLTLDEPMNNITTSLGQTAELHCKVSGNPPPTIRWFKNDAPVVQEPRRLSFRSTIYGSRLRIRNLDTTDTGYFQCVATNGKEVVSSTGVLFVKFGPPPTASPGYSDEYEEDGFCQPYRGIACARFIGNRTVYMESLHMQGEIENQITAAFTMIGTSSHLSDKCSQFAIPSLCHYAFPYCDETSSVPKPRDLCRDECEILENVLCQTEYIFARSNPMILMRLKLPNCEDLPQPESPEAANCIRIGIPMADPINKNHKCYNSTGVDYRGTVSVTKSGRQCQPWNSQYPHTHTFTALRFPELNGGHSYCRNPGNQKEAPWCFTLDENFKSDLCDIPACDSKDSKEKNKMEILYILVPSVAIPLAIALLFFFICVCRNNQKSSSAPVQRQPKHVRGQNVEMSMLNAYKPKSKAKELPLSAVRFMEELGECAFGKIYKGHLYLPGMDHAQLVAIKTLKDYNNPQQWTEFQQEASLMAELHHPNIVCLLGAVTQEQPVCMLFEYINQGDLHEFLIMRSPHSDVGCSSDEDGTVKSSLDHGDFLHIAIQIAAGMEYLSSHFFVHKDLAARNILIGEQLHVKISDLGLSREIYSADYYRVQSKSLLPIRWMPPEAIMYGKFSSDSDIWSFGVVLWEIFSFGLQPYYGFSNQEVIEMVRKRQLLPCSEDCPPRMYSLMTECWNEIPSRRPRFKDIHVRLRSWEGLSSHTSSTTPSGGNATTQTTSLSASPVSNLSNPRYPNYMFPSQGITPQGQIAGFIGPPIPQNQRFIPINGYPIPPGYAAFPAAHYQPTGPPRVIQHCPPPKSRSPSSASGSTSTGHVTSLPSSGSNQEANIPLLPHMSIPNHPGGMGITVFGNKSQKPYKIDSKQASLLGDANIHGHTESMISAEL
Method: (§2) Cell binding activity of anti-ROR1 antibodies were measured with human ROR1 transfected CHO cell line (CHO-ROR1) and ROR1-expressing myeloma cell line (RPMI8226). Briefly, 5×10⁵ cells were seeded into each well of a 96-well plate. Cells were centrifuged at 400 g for 5 minutes and supernatants were discarded. For each well, 100 μl of serially diluted antibodies were then added and mixed with the cells. After 40 minutes incubation at 4° C., plates were washed several times to remove excess antibodies. Secondary fluorochrome-conjugated goat anti-mouse IgG antibody was then added and incubated with cells at room temperature for 20 minutes. After another round of centrifugation and a washing step, cells were resuspended in FACS buffer for reading on a CytoFLEX Flow Cytometer (Beckman Coulter). Median Fluorescence Intensity (MFI) readouts were plotted against antibody concentration and analyzed with GraphPad Prism 6.0 software. The results shown in FIGS. 2A-B illustrate the binding activities of anti-ROR1 monoclonal antibodies ROR1-mAb004 and ROR1-Tab1 to ROR1 expressing cells. An irrelevant mIgG1 was used as negative control.

human ROR1 on cells [4] = biological target: T2, human ROR1 on cells; test: flow cytometry on RPMI-8226 myeloma cells
Method: as §2

[5] = biological target: T1, recombinant human ROR1-ECD protein; test: ELISA, ROR1-ECD coated at 1 ug/mL
Method: The binding specificity and potency of anti-ROR1 antibodies were characterized by protein ELISA and flow cytometry analysis of cell surface binding. Briefly, binding properties of the anti-ROR1 antibodies were measured with ELISA as follows: recombinant ROR1-ECD protein was coated at 1 μg/mL on 96-well plates at 4° C. overnight. Plates were washed once with washing buffer (PBS containing 0.05% Tween 20) and blocked with ELISA blocking buffer (1% BSA in PBS containing 0.05% Tween 20) at room temperature for 2 hours. Anti-ROR1 antibodies were then added and incubated at 37° C. for 1 hour. Plates were washed three times with washing buffer. HRP labeled anti-mouse IgG secondary antibody (Sigma, Cat. #A0168) was added and the plates were incubated at 37° C. for 30 minutes then washed 5 times in washing buffer. 100 μl of tetramethylbenzidine (TMB) chromogenic solution was added to each well. Following color development, the reaction was stopped with 1 Normal HCl and absorbance at 450 nm was measured on a Varioskan™ LUX microplate reader (ThermoFisher Scientific). Binding signals were plotted against antibody concentration with GraphPad Prism 6.0 software and EC50s were calculated accordingly.

[6] = biological target: T1, recombinant human ROR1-ECD protein; test: BLI (Octet RED96), antibody captured on anti-mouse IgG Fc sensors, ROR1-ECD in solution, 25 C, 1:1 fit
Method: Briefly, Anti-Mouse IgG Fc Capture (AMC) Biosensors were used to capture purified anti-ROR1 antibodies. Sensors were then dipped into solutions containing recombinant human ROR1-ECD protein to detect target protein binding to the captured antibodies. Kinetics constants were determined by processing and fitting data to a 1:1 binding model using Fortebio analysis software. Shown below in Table 2 are the results obtained for ROR1-mAb004 in comparison with two previously described anti-ROR1 monoclonal antibodies, ROR1-Tab1 is clone R12 as described in WO2014167022, and ROR1-Tab2 is clone D10 as described in WO2012097313.

[7] = biological target: T1, recombinant human ROR1-ECD protein; test: competition ELISA: biotinylated ROR1-ECD pre-mixed with the row's antibody; competitor coated on the plate: ROR1-Tab1
Method: as §1

[8] = biological target: T1, recombinant human ROR1-ECD protein; test: BLI (Octet RED96), FIT-Ig captured on anti-hIgG Fc sensors, ROR1 ECD at 10 ug/ml; the reference itself
Method: (§3) The ROR1/CD3 FIT-Ig proteins were assayed for and ranked by dissociation rate constant (koff, “off-rate”) using an Octet®RED96 biolayer interferometry (Pall FortéBio LLC). Anti-hIgG Fc Capture (AHC) Biosensors (Pall) were first exposed to antibody at a concentration of 100 nM for 30 seconds to capture antibody, then dipped into running buffer (1× pH 7.2 PBS, 0.05% Tween 20, 0.1% BSA) for 60 seconds to check baseline. Sensors with captured antibody were dipped into recombinant human ROR1 ECD protein at 10 ug/ml for 5 minutes to measure association, followed by dipped into running buffer for 1200 seconds to measure dissociation. The association and dissociation curves were fitted to a 1:1 Langmuir binding model using ForteBio Data Analysis software (Pall). The off-rate ratios were calculated by the off-rate of antibody to that of FIT1007-12B. Lower ratio indicates slower dissociation of the antibody in comparison with the parental chimeric antibody FIT1007-12B.

[9] = biological target: T1, recombinant human ROR1-ECD protein; test: BLI (Octet), 6 ROR1 antigen concentrations, 3 fold diluted from 500 nM
Method: as §3
ROR1 binding affinity/kinetics of the humanized candidate FIT1007-12B-17 and its parental chimeric FIT-Ig FIT1007-12B were measured using the same method as described in Example 3. For each antibody, measurements were titrated by 6 antigen concentrations, i.e., 3 fold diluted from 500 nM. Binding kinetics of FIT1007-12B-18, MAT1007-12B-17 and MAT1007-12B-18 are similar to those of FIT1007-12B-17. These candidates share the same ROR1 binding Fab.

human ROR1 on cells [10] = biological target: T2, human ROR1 on cells; test: flow cytometry on A549 cells, MFI
Method: (§4) Briefly, 5×10⁵ cells were seeded into each well of a 96-well plate. Cells were centrifuged at 400 g for 5 minutes and supernatants were discarded. For each well, […] of serially diluted antibodies were then added and mixed with the cells. After 40 minutes of incubation at 4° C., plates were washed several times to remove excess antibodies. Secondary fluorochrome-conjugated goat anti-human IgG antibody was then added and incubated with cells at room temperature for 20 minutes. After another round of centrifugation and a washing step, cells were resuspended in FACS buffer for reading on a CytoFLEX Flow Cytometer (Beckman Coulter). Median Fluorescence Intensity (MFI) readouts were plotted against antibody concentration and analyzed with GraphPad Prism 6.0 software.

human ROR1 on cells [11] = biological target: T2, human ROR1 on cells; test: flow cytometry on RPMI8226 cells, internalization assay, 4°C control (coincides with 37°C + PAO)
Method: The binding internalization of humanized anti-ROR1 antibodies were characterized with ROR1-expressing myeloma cell line RPMI8226 with a method similar to that described previously in Example 1.4. Briefly, cells were harvested and resuspended in FACS buffer at density of 3 million per mL. Diluted antibodies were added to the tubes and incubated for 30 min at 4° C. After the first incubation, cells were washed three times with cold PBS to remove unbound antibody. Then, the cells of each antibody treatment were split into three groups, 4° C., 37° C. and 37° C.+PAO, respectively. Cells in the 37° C. […] After another round of centrifugation and washing step, cells were resuspended in FACS buffer for reading on a CytoFLEX Flow Cytometer (Beckman Coulter). An irrelevant mouse IgG control (MFIbackground) was calculated and used for background calibration. The difference between the MFI readout of “control” and that of “internalization” (ΔMFI) reflects the internalization of ROR1 antibodies, and such difference in relative to calibrated MFI of “control” reflects percentage of antibody internalization, which is calculated as follows and is summarized below in Table 15. […] The calculated antibody internalization percentages of HuROR-mAb004-1 and FIT1007-12B-17 were consistent with the results shown in Example 1.4, Table 4.

human ROR1 on cells [12] = biological target: T2, human ROR1 on cells; test: flow cytometry on RPMI-8226 cells, MFI
Method: as §4

human ROR1 on cells [13] = biological target: T2, human ROR1 on cells; test: flow cytometry on NCI-H1975 cells, MFI
Method: as §4

human ROR1 on cells [14] = biological target: T2, human ROR1 on cells; test: flow cytometry on MDA-MB-231 cells, MFI
Method: as §4

T1 sequence (Q01973 30-406): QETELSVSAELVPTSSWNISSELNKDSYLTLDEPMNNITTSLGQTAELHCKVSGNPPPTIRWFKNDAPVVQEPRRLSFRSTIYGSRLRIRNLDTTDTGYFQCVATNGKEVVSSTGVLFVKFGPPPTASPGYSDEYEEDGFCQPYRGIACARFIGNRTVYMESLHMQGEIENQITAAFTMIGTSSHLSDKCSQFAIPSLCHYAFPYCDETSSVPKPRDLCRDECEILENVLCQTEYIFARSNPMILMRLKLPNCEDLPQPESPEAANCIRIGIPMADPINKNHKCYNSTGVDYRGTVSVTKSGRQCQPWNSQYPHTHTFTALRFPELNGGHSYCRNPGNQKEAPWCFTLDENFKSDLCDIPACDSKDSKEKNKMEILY

Row | Binder | Inhibition % [1] [%] | Inhibition % [2] [%] | EC50 (human ROR1 on cells [3]) [nM] | EC50 (human ROR1 on cells [4]) [nM] | EC50 [5] [nM] | Kd [6] [nM] | koff [6] [s⁻¹] | kon [6] [M⁻¹ s⁻¹] | Inhibition % [7] [%] | Off-rate Ratio [8] [%] | Kd [9] [nM] | koff [9] [s⁻¹] | kon [9] [M⁻¹ s⁻¹] | EC50 (read off the curve) (human ROR1 on cells [10]) [nM] | EC50 (read off the curve) (human ROR1 on cells [12]) [nM] | EC50 (read off the curve) (human ROR1 on cells [13]) [nM] | EC50 (read off the curve) (human ROR1 on cells [14]) [nM] | EC50 (read off the curve) (human ROR1 on cells [11]) [nM]
1 | FIT1007-12B (bispecific antibody, human IgG1, kappa, L234A L235A, also called parental chimeric FIT-Ig; chimeric antibody (FIT1007-12B)) chain 1: not shown chain 2: QVQLQQSGPELVKPGASVKISCKASGYAFSRSWMNWVKQRPEKGLEWIGRIYPGNGDIKYNGNFKGKATLTADKSSSTAYMQLSSLTSEDSAVYFCAHIYYDFYYALDYWGQGTSVTVSSASTKGPSVFPLAPSSKSTSGGTAALGCLVKDYFPEPVTVSWNSGALTSGVHTFPAVLQSSGLYSLSSVVTVPSSSLGTQTYICNVNHKPSNTKVDKKVEPKSC chain 3: not shown |  |  |  |  |  |  |  |  |  | 100 | 5.67 | 0.00103 | 182000 |  |  |  |  | 
2 | HuROR1-mAb004-1 (antibody, V domains shown, only the variable domains are tied to it; also called HuROR-mAb004-1; parental anti-ROR1 monoclonal IgG1 antibody) VH: EVQLVQSGAEVKKPGSSVKVSCKASGYTFSRSWMNWVRQAPGQGLEWMGRIYPGNADIKYNANFKGRVTITADKSTSTAYMELSSLRSEDTAVYYCAHIYYDFYYALDYWGQGTTVTVSS VL: DIQMTQSPSSLSASVGDRVTITCKASQDINKYITWYQQKPGKAPKLLIYYTSTLQPGVPSRFSGSGSGTDYTFTISSLQPEDIATYYCLQYDSLLWTFGGGTKVEIK |  |  |  |  |  |  |  |  |  |  |  |  |  | ~1 | ~1 | ~2 | ~2 | ~1

The next lines start with results.

Row | Inhibition % [1] [%] | Inhibition % [2] [%] | EC50 (human ROR1 on cells [3]) [nM] | EC50 (human ROR1 on cells [4]) [nM] | EC50 [5] [nM] | Kd [6] [nM] | koff [6] [s⁻¹] | kon [6] [M⁻¹ s⁻¹] | Inhibition % [7] [%] | Off-rate Ratio [8] [%] | Kd [9] [nM] | koff [9] [s⁻¹] | kon [9] [M⁻¹ s⁻¹] | EC50 (read off the curve) (human ROR1 on cells [10]) [nM] | EC50 (read off the curve) (human ROR1 on cells [12]) [nM] | EC50 (read off the curve) (human ROR1 on cells [13]) [nM] | EC50 (read off the curve) (human ROR1 on cells [14]) [nM] | Binder | EC50 (read off the curve) (human ROR1 on cells [11]) [nM]
3 | -84 | -54 | 0.774 | 0.128 | 0.025 | 1.28 | 0.00066 | 517000 | 95 |  |  |  |  |  |  |  |  | ROR1-Tab1 (antibody, V domains shown, also called clone R12; R12 as described in WO2014167022) VH: QEQLVESGGRLVTPGGSLTLSCKASGFDFSAYYMSWVRQAPGKGLEWIATIYPSSGKTYYATWVNGRFTISSDNAQNTVDLQMNSLTAADRATYFCARDSYADDGALFNIWGPGTLVTISS VL: ELVLTQSPSVSAALGSPAKITCTLSSAHKTDTIDWYQQLQGEAPRYLMQVQSDGSYTKRPGVPDRFSGSSSGADRYLIIPSVQADDEADYYCGADYIGGYVFGGGTQLTVTG | 
4 | 92 | 93 | 2.31 | 0.983 | 0.022 | 18.5 | 0.00171 | 92500 | -22 |  |  |  |  |  |  |  |  | ROR1-mAb004 (antibody, V domains shown, Mouse hybridoma monoclonal antibody; captured and detected through mouse IgG Fc) VH: QVQLQQSGPELVKPGASVKISCKASGYAFSRSWMNWVKQRPEKGLEWIGRIYPGNGDIKYNGNFKGKATLTADKSSSTAYMQLSSLTSEDSAVYFCAHIYYDFYYALDYWGQGTSVTVSS VL: DIQLTQSPSSLSASLGGKVTITCKASQDINKYITWYQHKPGKGPRLLIHYTSTLQPGIPSRFSGSGSGRDYSFSISNLEPEDIATYYCLQYDSLLWTFGGGTKLEIK | 
